The results in this text go back to patent US20180230224A1 (KITE PHARMA, published 2018).

Assay [1] concerns the target CD70 on NAMALWA and Raji cells (human) (UniProt P32970). Description: flow cytometry; EoL-1 cells stained with PE-conjugated anti-CD70 antibody; open histogram as control. (In flow cytometry, cells or beads pass a laser one at a time.)
Assay [2] shares this target. Nature of the assay: flow cytometry; U-937 cells stained with PE-conjugated anti-CD70 antibody; open histogram as control.
For assay [3] the target is unchanged. Description: flow cytometry; MV4;11 cells stained with PE-conjugated anti-CD70 antibody; open histogram as control.
Assay [4] shares this target. Nature of the assay: flow cytometry; Toledo cells stained with PE-conjugated anti-CD70 antibody; open histogram as control.
The target is the same in assay [5]. Description: flow cytometry; NAMALWA cells stained with PE-conjugated anti-CD70 antibody; open histogram as control.
For assay [6] the target is unchanged. Nature of the assay: flow cytometry; Raji cells (panel title cut to 'Raj'; panel order given in the legend paragraph 42) stained with PE-conjugated anti-CD70 antibody; open histogram as control.
The target of assay [7] is T1, recombinant CD70-Fc (Sino Biological) (UniProt P32970 39-193, limits assumed).
T1 construct: Bought reagent; not shown: Fc part
T1 sequence (looked up): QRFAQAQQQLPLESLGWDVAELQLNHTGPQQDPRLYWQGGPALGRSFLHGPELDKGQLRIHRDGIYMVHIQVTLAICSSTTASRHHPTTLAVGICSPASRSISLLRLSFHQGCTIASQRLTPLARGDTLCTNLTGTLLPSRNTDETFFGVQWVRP
Description: flow cytometry; donor 1 T cells transduced with the CAR, day 14 post stimulation, stained with recombinant CD70-Fc and goat anti-human IgG Fc PE; mock-transduced cells as control. Here is the method: Peripheral blood mononuclear cells (PBMCs) were isolated from two different healthy donor leukopaks (Hemacare) using Ficoll®-Paque density centrifugation according to the manufacturer's instructions. PBMCs were stimulated using OKT3 (Muromonab-CD3, 50 ng/ml, Miltenyi Biotec) in R10 media supplemented with IL-2 (300 IU/ml, Proleukin®, Prometheus® Therapeutics and Diagnostics). Forty-eight hours post-stimulation, cells were transduced using lentivirus containing the different CD70 CAR constructs at a multiplicity of infection (MOI) of 10. Cells were maintained at 0.5×10⁶-2.0×10⁶ cells/ml prior to use in activity assays.
At day 14 post-stimulation, transduced T cells were stained with recombinant CD70-Fc (Sino Biological) in stain buffer (BD Pharmingen) for 30 minutes at 4° C. Cells were then washed and stained with goat anti-human IgG Fc PE (Jackson ImmunoResearch) in stain buffer for 30 minutes at 4° C. Cells were then washed and resuspended in stain buffer with propidium iodide (BD Pharmingen) prior to data acquisition. All experiments were performed in two different donors.

Turning to “anti-CD70 antibody conjugated to PE (BD Pharmingen)”, the percent of cells in the positive gate (number in the panel) in assay [1] stood at 64.6%; in assay [2] it was 96.6%; in assay [3], 43.1%; in assay [4] it was 99.9%; in assay [5], 100%; in assay [6], 100%.

B1: 6E9.1_C28T_4Bz (other)
chain: QVHLVQSGAEVKKPGASVRVSCKASGYTFTSYYLHWVRQAPGQGLEWMGIVDPSGGSTSYDQKFQGRFTMTRDTSTSTVYMELSSLRSEDTAVYYCARDYGDYVFDYWGQGTLVTVSSGGGGSGGGGSGGGGSQSVLTQPPSASGTPGQRVTISCSGSSSNIGTNTVNWYQQLPGTAPQLLIYINNQRPSGVPDRFSGSKSGTSASLAISGLQSEDEADYYCATWDDSLNGPVVGGGTKLTVLGAAALDNEKSNGTIIHVKGKHLCPSPLFPGPSKPFWVLVVVGGVLACYSLLVTVAFIIFWVRFSVVKRGRKKLLYIFKQPFMRPVQTTQEEDGCSCRFPEEEEGGCELRVKFSRSADAPAYQQGQNQLYNELNLGRREEYDVLDKRRGRDPEMGGKPRRKNPQEGLYNELQKDKMAEAYSEIGMKGERRRGKGHDGLYQGLSTATKDTYDALHMQALPPR
notes: Chimeric antigen receptor on lentivirus-transduced human T cells; 6E9 scFv, CD28T hinge/TM, 4-1BB, CD3 zeta; also called 28T-4Bz comprising a 6E9 scFv
Turning to B1, in assay [7], the “% CAR (+)” value was found to be 4.48%.

B2: 1C8.1.001_C28T_28z (other)
chain: QVQLQESGPGLVKPSQTLSLTCTVSGDSIISGGYYWSWIRQHPGKGLEWIGYIFYSGSTDYNPSLKSRVTISVDTSKNQFSLKLSSVTAADTAVYYCARSGYSYALFDHWGQGTLVTVSSGGGGSGGGGSGGGGSDIQMTQSPSSLSASVGDRVTISCRASQFIGRYFNWYQQQPGKAPKVLIYAESSLQSGVPSRFSGSGSGTEFTLTISSLQPEDFARYYCQQSYSTPFTFGQGTKVEIKRAAALDNEKSNGTIIHVKGKHLCPSPLFPGPSKPFWVLVVVGGVLACYSLLVTVAFIIFWVRSKRSRLLHSDYMNMTPRRPGPTRKHYQPYAPPRDFAAYRSRVKFSRSADAPAYQQGQNQLYNELNLGRREEYDVLDKRRGRDPEMGGKPRRKNPQEGLYNELQKDKMAEAYSEIGMKGERRRGKGHDGLYQGLSTATKDTYDALHMQALPPR
notes: Chimeric antigen receptor on lentivirus-transduced human T cells; also called 28T-28z comprising a 1C8 scFv
Turning to B2, in assay [7], the “% CAR (+)” value was found to be 25.4%.

B3: 8G1.1_C28T_4Bz (other)
chain: QEQLVESGGGVVQPGRSLRLSCAASGFTFSSYGMHWVRQAPGKGLEWVAVTWYDGSNKYYGDSVKGRFTISRDNSKNTLYLQMNSLRAEDTAVYYCARDLLRGVKGYAMDVWGQGTTVTVSSGGGGSGGGGSGGGGSEIVLTQSPGTLSLSPGERATLSCRASQSLRRIYLAWYQQKPGQAPRLLIYDVFDRATGIPDRFSGGGSGTDFTLTISRLEPEDFAVYYCQQYSDSPFTFGPGTKVDIKRAAALDNEKSNGTIIHVKGKHLCPSPLFPGPSKPFWVLVVVGGVLACYSLLVTVAFIIFWVRFSVVKRGRKKLLYIFKQPFMRPVQTTQEEDGCSCRFPEEEEGGCELRVKFSRSADAPAYQQGQNQLYNELNLGRREEYDVLDKRRGRDPEMGGKPRRKNPQEGLYNELQKDKMAEAYSEIGMKGERRRGKGHDGLYQGLSTATKDTYDALHMQALPPR
notes: Chimeric antigen receptor on lentivirus-transduced human T cells; 8G1 scFv, CD28T hinge/TM, 4-1BB, CD3 zeta; also called 28T-4Bz comprising an 8G1 scFv
Consider B3, for which the “% CAR (+)” value in assay [7] is 49.8%.

B4: 1C8.1.001_C28T_4Bz (other)
chain: QVQLQESGPGLVKPSQTLSLTCTVSGDSIISGGYYWSWIRQHPGKGLEWIGYIFYSGSTDYNPSLKSRVTISVDTSKNQFSLKLSSVTAADTAVYYCARSGYSYALFDHWGQGTLVTVSSGGGGSGGGGSGGGGSDIQMTQSPSSLSASVGDRVTISCRASQFIGRYFNWYQQQPGKAPKVLIYAESSLQSGVPSRFSGSGSGTEFTLTISSLQPEDFARYYCQQSYSTPFTFGQGTKVEIKRAAALDNEKSNGTIIHVKGKHLCPSPLFPGPSKPFWVLVVVGGVLACYSLLVTVAFIIFWVRFSVVKRGRKKLLYIFKQPFMRPVQTTQEEDGCSCRFPEEEEGGCELRVKFSRSADAPAYQQGQNQLYNELNLGRREEYDVLDKRRGRDPEMGGKPRRKNPQEGLYNELQKDKMAEAYSEIGMKGERRRGKGHDGLYQGLSTATKDTYDALHMQALPPR
notes: Chimeric antigen receptor on lentivirus-transduced human T cells; 1C8 scFv, CD28T hinge/TM, 4-1BB, CD3 zeta; also called 28T-4Bz comprising a 1C8 scFv
On to B4, for which the “% CAR (+)” value in assay [7] came out at 0.27%.

B5: 6E9.1_C28T_28z (other)
chain: QVHLVQSGAEVKKPGASVRVSCKASGYTFTSYYLHWVRQAPGQGLEWMGIVDPSGGSTSYDQKFQGRFTMTRDTSTSTVYMELSSLRSEDTAVYYCARDYGDYVFDYWGQGTLVTVSSGGGGSGGGGSGGGGSQSVLTQPPSASGTPGQRVTISCSGSSSNIGTNTVNWYQQLPGTAPQLLIYINNQRPSGVPDRFSGSKSGTSASLAISGLQSEDEADYYCATWDDSLNGPVVGGGTKLTVLGAAALDNEKSNGTIIHVKGKHLCPSPLFPGPSKPFWVLVVVGGVLACYSLLVTVAFIIFWVRSKRSRLLHSDYMNMTPRRPGPTRKHYQPYAPPRDFAAYRSRVKFSRSADAPAYQQGQNQLYNELNLGRREEYDVLDKRRGRDPEMGGKPRRKNPQEGLYNELQKDKMAEAYSEIGMKGERRRGKGHDGLYQGLSTATKDTYDALHMQALPPR
notes: Chimeric antigen receptor on lentivirus-transduced human T cells; also called 28T-28z comprising a 6E9 scFv
Consider B5, for which the “% CAR (+)” value in assay [7] is 4.45%.

B6: 8G1.1_C28T_28z (other)
chain: QEQLVESGGGVVQPGRSLRLSCAASGFTFSSYGMHWVRQAPGKGLEWVAVTWYDGSNKYYGDSVKGRFTISRDNSKNTLYLQMNSLRAEDTAVYYCARDLLRGVKGYAMDVWGQGTTVTVSSGGGGSGGGGSGGGGSEIVLTQSPGTLSLSPGERATLSCRASQSLRRIYLAWYQQKPGQAPRLLIYDVFDRATGIPDRFSGGGSGTDFTLTISRLEPEDFAVYYCQQYSDSPFTFGPGTKVDIKRAAALDNEKSNGTIIHVKGKHLCPSPLFPGPSKPFWVLVVVGGVLACYSLLVTVAFIIFWVRSKRSRLLHSDYMNMTPRRPGPTRKHYQPYAPPRDFAAYRSRVKFSRSADAPAYQQGQNQLYNELNLGRREEYDVLDKRRGRDPEMGGKPRRKNPQEGLYNELQKDKMAEAYSEIGMKGERRRGKGHDGLYQGLSTATKDTYDALHMQALPPR
notes: also called CD70 CAR C3L; 28T-28z comprising an 8G1 scFv
As for B6, the “% CAR (+)” value in assay [7] was found to be 42.2%.
